Test results published in PMC9482650, “Quantitative fragmentomics allow affinity mapping of interactomes” (Nature Communications, 2022).

B1: BAZ1A, Q9NRL2 (peptide)
chain: TPPAAKKSRI
B2: KCNJ1, P48048 (peptide)
chain: EVNETDDTKM

Each binder was assayed against T1, CARD11, Q9BXL7 (assay: holdup assay). Settings: plain residues with an end cap or a label only (N-terminal biotin on a linker: ado-ado).
T1 sequence (Q9BXL7 662-765, limits assumed, looked up): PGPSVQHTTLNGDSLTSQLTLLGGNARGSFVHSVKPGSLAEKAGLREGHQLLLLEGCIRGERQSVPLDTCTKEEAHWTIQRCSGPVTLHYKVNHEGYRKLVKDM
Parameters: key: below the threshold = too weak to quantify, mostly under pKd 3.1 to 4
B1 was tested, and the pKd was “below the threshold”.
B2 was tested, and the pKd was “below the threshold”.

These binders were tested against T2, DFNB31_1, Q9P202 (assay: holdup assay). Settings: plain residues with an end cap or a label only (N-terminal biotin on a linker: ado-ado).
T2 sequence (Q9P202 135-233, limits assumed, looked up): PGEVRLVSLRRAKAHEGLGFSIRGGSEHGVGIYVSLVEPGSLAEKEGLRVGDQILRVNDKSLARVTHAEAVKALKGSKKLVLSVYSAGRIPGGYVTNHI
Parameters: key: below the threshold = too weak to quantify, mostly under pKd 3.1 to 4
Binder B1 has a pKd of 3.68.
B2 was tested, and the pKd was 3.69.

The binders below were run against DLG4_2, P78352 (assay: holdup assay). Settings: plain residues with an end cap or a label only (N-terminal biotin on a linker: ado-ado).
DLG4_2, P78352, sequence (P78352 155-259): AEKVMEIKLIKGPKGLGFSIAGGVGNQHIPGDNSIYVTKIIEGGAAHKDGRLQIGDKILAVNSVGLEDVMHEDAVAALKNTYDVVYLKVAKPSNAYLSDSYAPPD
Parameters: key: below the threshold = too weak to quantify, mostly under pKd 3.1 to 4
With B1 the pKd was 3.85.
B2 showed a pKd of 3.59.

These binders were tested against FRMPD2_2, Q68DX3 (assay: holdup assay). Settings: plain residues with an end cap or a label only (N-terminal biotin on a linker: ado-ado).
FRMPD2_2, Q68DX3, sequence (Q68DX3 944-1038): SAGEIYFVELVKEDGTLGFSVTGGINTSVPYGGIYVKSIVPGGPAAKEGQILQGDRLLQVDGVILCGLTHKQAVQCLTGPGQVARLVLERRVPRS
Parameters: key: below the threshold = too weak to quantify, mostly under pKd 3.1 to 4
With B1 the pKd was “below the threshold”.
For B2, the pKd was “below the threshold”.

The binders below were run against FRMPD3, Q5JV73 (assay: holdup assay). Settings: plain residues with an end cap or a label only (N-terminal biotin on a linker: ado-ado).
FRMPD3, Q5JV73, sequence (Q5JV73 12-100): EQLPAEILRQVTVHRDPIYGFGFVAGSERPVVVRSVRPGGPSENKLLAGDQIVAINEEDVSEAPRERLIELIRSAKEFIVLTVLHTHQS
Parameters: key: below the threshold = too weak to quantify, mostly under pKd 3.1 to 4
In the case of B1, the pKd is reported as “below the threshold”.
B2 was tested, and the pKd was “below the threshold”.

Each binder was assayed against FRMPD4, Q14CM0 (assay: holdup assay). Settings: plain residues with an end cap or a label only (N-terminal biotin on a linker: ado-ado).
FRMPD4, Q14CM0, sequence (Q14CM0 67-160): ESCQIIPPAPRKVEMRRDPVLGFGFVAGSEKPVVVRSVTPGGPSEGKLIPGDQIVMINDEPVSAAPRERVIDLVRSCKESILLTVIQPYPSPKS
Parameters: key: below the threshold = too weak to quantify, mostly under pKd 3.1 to 4
For B1, the pKd was “below the threshold”.
For B2, the pKd was 3.75.

The binders below were run against GOPC, Q9HD26 (assay: holdup assay). Settings: plain residues with an end cap or a label only (N-terminal biotin on a linker: ado-ado).
Parameters: key: below the threshold = too weak to quantify, mostly under pKd 3.1 to 4
With B1 the pKd was 4.06.
With B2 the pKd was “below the threshold”.

Each binder was assayed against T3, GRIP1_2, Q9Y3R0 (assay: holdup assay). Settings: plain residues with an end cap or a label only (N-terminal biotin on a linker: ado-ado).
T3 sequence (Q9Y3R0 145-248, limits assumed, looked up): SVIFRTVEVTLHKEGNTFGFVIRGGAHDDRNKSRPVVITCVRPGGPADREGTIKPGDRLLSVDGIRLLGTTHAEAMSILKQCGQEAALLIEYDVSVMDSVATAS
Parameters: key: below the threshold = too weak to quantify, mostly under pKd 3.1 to 4
For B1, the pKd was “below the threshold”.
For B2, the pKd was “below the threshold”.

What follows are binders tested against T4, GRIP1_7, Q9Y3R0 (assay: holdup assay). Settings: plain residues with an end cap or a label only (N-terminal biotin on a linker: ado-ado).
T4 sequence (Q9Y3R0 999-1096, limits assumed, looked up): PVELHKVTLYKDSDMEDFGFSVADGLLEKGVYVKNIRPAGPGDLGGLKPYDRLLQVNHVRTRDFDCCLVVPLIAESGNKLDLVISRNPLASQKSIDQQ
Parameters: key: below the threshold = too weak to quantify, mostly under pKd 3.1 to 4
With B1 the pKd was “below the threshold”.
B2 was tested, and the pKd was “below the threshold”.

Each binder was assayed against GRIP2_6, Q9C0E4 (assay: holdup assay). Settings: plain residues with an end cap or a label only (N-terminal biotin on a linker: ado-ado).
GRIP2_6, Q9C0E4, sequence (Q9C0E4 648-740): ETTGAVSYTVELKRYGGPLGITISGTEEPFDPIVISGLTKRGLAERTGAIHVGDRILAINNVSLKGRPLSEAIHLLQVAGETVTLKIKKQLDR
Parameters: key: below the threshold = too weak to quantify, mostly under pKd 3.1 to 4
For B1, the pKd was “below the threshold”.
Work on B2 yielded a pKd of 3.52.

Each binder was assayed against HTRA2, O43464 (assay: holdup assay). Settings: plain residues with an end cap or a label only (N-terminal biotin on a linker: ado-ado).
HTRA2, O43464, sequence (O43464 355-458): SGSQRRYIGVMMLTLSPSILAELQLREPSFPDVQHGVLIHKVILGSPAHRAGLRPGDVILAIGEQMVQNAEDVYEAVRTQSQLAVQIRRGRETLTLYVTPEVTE
Parameters: key: below the threshold = too weak to quantify, mostly under pKd 3.1 to 4
For B1, the pKd was “below the threshold”.
For B2, the pKd was “below the threshold”.

These binders were tested against IL16_1, Q14005 (assay: holdup assay). Settings: plain residues with an end cap or a label only (N-terminal biotin on a linker: ado-ado).
IL16_1, Q14005, sequence (Q14005 210-306): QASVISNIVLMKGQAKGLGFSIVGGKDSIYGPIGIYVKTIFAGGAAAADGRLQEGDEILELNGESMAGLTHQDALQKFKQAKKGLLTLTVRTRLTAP
Parameters: key: below the threshold = too weak to quantify, mostly under pKd 3.1 to 4
For B1, the pKd was “below the threshold”.
In the case of B2, the pKd is reported as “below the threshold”.

The binders below were run against Inadl_2, Q8NI35 (assay: holdup assay). Settings: plain residues with an end cap or a label only (N-terminal biotin on a linker: ado-ado).
Inadl_2, Q8NI35, sequence (Q8NI35 238-335): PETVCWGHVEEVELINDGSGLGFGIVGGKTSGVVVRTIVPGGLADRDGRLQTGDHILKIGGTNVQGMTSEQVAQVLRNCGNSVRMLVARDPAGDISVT
Parameters: key: below the threshold = too weak to quantify, mostly under pKd 3.1 to 4
For B1, the pKd was “below the threshold”.
In the case of B2, the pKd is reported as “below the threshold”.

These binders were tested against Inadl_4, Q8NI35 (assay: holdup assay). Settings: plain residues with an end cap or a label only (N-terminal biotin on a linker: ado-ado).
Inadl_4, Q8NI35, sequence (Q8NI35 547-651): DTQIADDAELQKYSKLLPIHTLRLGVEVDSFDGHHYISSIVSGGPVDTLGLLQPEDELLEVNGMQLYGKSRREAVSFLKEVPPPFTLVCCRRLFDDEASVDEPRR
Parameters: key: below the threshold = too weak to quantify, mostly under pKd 3.1 to 4
With B1 the pKd was “below the threshold”.
With B2 the pKd was “below the threshold”.

Each binder was assayed against LDB3, O75112 (assay: holdup assay). Settings: plain residues with an end cap or a label only (N-terminal biotin on a linker: ado-ado).
LDB3, O75112, sequence (O75112 1-94): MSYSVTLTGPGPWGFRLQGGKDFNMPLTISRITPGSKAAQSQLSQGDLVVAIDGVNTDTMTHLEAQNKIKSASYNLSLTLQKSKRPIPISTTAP
Parameters: key: below the threshold = too weak to quantify, mostly under pKd 3.1 to 4
For B1, the pKd was “below the threshold”.
In the case of B2, the pKd is reported as “below the threshold”.

These binders were tested against T5, LRRC7, Q96NW7 (assay: holdup assay). Settings: plain residues with an end cap or a label only (N-terminal biotin on a linker: ado-ado).
T5 sequence (Q96NW7 1440-1537, limits assumed, looked up): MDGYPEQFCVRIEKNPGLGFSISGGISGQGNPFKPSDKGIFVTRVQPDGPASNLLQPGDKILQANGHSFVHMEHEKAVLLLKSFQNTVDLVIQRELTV
Parameters: key: below the threshold = too weak to quantify, mostly under pKd 3.1 to 4
With B1 the pKd was “below the threshold”.
For B2, the pKd was “below the threshold”.

The binders below were run against MAGI2_5, Q86UL8 (assay: holdup assay). Settings: plain residues with an end cap or a label only (N-terminal biotin on a linker: ado-ado).
MAGI2_5, Q86UL8, sequence (Q86UL8 915-1017): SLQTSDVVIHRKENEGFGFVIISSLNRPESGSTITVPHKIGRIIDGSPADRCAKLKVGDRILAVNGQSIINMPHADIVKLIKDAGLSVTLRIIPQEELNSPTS
Parameters: key: below the threshold = too weak to quantify, mostly under pKd 3.1 to 4
In the case of B1, the pKd is reported as “below the threshold”.
B2 gave a pKd of 4.04.

These binders were tested against MAGI3_2, Q5TCQ9 (assay: holdup assay). Settings: plain residues with an end cap or a label only (N-terminal biotin on a linker: ado-ado).
MAGI3_2, Q5TCQ9, sequence (Q5TCQ9 398-503): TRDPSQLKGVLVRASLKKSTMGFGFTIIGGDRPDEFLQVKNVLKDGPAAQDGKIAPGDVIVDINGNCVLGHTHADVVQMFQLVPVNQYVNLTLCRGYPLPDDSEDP
Parameters: key: below the threshold = too weak to quantify, mostly under pKd 3.1 to 4
In the case of B1, the pKd is reported as “below the threshold”.
For B2, the pKd was “below the threshold”.

The binders below were run against MAST1, Q9Y2H9 (assay: holdup assay). Settings: plain residues with an end cap or a label only (N-terminal biotin on a linker: ado-ado).
MAST1, Q9Y2H9, sequence (Q9Y2H9 962-1065): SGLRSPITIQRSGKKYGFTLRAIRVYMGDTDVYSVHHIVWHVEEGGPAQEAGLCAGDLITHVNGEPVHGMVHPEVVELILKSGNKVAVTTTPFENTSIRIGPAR
Parameters: key: below the threshold = too weak to quantify, mostly under pKd 3.1 to 4
For B1, the pKd was 3.9.
Binder B2 has a pKd of 4.46.

These binders were tested against T6, MPDZ_10, O75970 (assay: holdup assay). Settings: plain residues with an end cap or a label only (N-terminal biotin on a linker: ado-ado).
T6 sequence (O75970 1624-1722, limits assumed, looked up): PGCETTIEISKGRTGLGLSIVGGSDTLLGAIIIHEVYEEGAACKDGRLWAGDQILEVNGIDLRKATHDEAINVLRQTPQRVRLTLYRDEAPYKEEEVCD
Parameters: key: below the threshold = too weak to quantify, mostly under pKd 3.1 to 4
Binder B1 has a pKd of 3.69.
B2 was tested, and the pKd was “below the threshold”.

What follows are binders tested against T7, MPDZ_5, O75970 (assay: holdup assay). Settings: plain residues with an end cap or a label only (N-terminal biotin on a linker: ado-ado).
T7 sequence (O75970 695-796, limits assumed, looked up): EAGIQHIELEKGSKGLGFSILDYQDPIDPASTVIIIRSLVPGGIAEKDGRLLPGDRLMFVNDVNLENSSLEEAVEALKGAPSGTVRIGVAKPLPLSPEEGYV
Parameters: key: below the threshold = too weak to quantify, mostly under pKd 3.1 to 4
With B1 the pKd was “below the threshold”.
With B2 the pKd was “below the threshold”.

Each binder was assayed against T8, MPP6, Q9NZW5 (assay: holdup assay). Settings: plain residues with an end cap or a label only (N-terminal biotin on a linker: ado-ado).
T8 sequence (Q9NZW5 125-219, limits assumed, looked up): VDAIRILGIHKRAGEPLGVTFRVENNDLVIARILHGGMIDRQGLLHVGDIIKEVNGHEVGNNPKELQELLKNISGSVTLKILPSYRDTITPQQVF
Parameters: key: below the threshold = too weak to quantify, mostly under pKd 3.1 to 4
In the case of B1, the pKd is reported as “below the threshold”.
For B2, the pKd was “below the threshold”.

Each binder was assayed against T9, MPP7, Q5T2T1 (assay: holdup assay). Settings: plain residues with an end cap or a label only (N-terminal biotin on a linker: ado-ado).
T9 sequence (Q5T2T1 134-230, limits assumed, looked up): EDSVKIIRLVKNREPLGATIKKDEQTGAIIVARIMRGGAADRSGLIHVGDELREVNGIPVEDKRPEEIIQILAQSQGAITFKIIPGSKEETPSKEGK
Parameters: key: below the threshold = too weak to quantify, mostly under pKd 3.1 to 4
B1 was tested, and the pKd was “below the threshold”.
B2 was tested, and the pKd was “below the threshold”.

These binders were tested against NHERF4_1, Q86UT5-2 (assay: holdup assay). Settings: plain residues with an end cap or a label only (N-terminal biotin on a linker: ado-ado).
NHERF4_1, Q86UT5-2, sequence (Q86UT5 other isoform, or with tags, fused parts or gaps): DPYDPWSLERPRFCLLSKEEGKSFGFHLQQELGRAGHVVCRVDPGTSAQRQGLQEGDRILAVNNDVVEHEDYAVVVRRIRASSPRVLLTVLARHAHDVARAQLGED
Parameters: key: below the threshold = too weak to quantify, mostly under pKd 3.1 to 4
With B1 the pKd was “below the threshold”.
With B2 the pKd was “below the threshold”.

What follows are binders tested against T10, RADIL, Q96JH8 (assay: holdup assay). Settings: plain residues with an end cap or a label only (N-terminal biotin on a linker: ado-ado).
T10 sequence (Q96JH8 971-1071, limits assumed, looked up): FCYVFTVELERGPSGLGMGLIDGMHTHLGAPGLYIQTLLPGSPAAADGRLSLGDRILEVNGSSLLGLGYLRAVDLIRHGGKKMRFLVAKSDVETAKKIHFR
Parameters: key: below the threshold = too weak to quantify, mostly under pKd 3.1 to 4
For B1, the pKd was “below the threshold”.
In the case of B2, the pKd is reported as 3.56.

The binders below were run against T11, RAPGEF6, Q8TEU7 (assay: holdup assay). Settings: plain residues with an end cap or a label only (N-terminal biotin on a linker: ado-ado).
T11 sequence (Q8TEU7 525-625, limits assumed, looked up): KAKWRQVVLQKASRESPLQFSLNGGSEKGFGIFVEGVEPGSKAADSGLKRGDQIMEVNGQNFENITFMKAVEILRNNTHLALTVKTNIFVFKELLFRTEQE
Parameters: key: below the threshold = too weak to quantify, mostly under pKd 3.1 to 4
B1 was tested, and the pKd was 3.53.
For B2, the pKd was “below the threshold”.
